In US8003854B2, “GRG32: a novel EPSP synthase gene conferring herbicide resistance” (Athenix Corp., priority 2006, dated 2011):

System: E. coli cells
Test: Glyphosate screen: growth of pRSF1b clones on M63+ plates with glyphosate
Type: cell-based
Settings: two days at 37° C.
Experimental: The pRSF1b clones were plated onto M63+ plates containing antibiotic and either 0 mM or 50 mM glyphosate. Growth was scored after two days growth at 37° C.

B1: GRG32: glyphosate-resistant EPSP synthase; predicted translation product of grg32 (SEQ ID NO:2), expressed from clone pAX1950 in pRSF1b (protein)
chain: MTASASWTARKGQPLQGSLTIPGDKSVSHRAVMFAALADGVSHIDGFLEGEDTRATAAIFSQMGVRIETPSPSQRIVHGVGVDGLQAPAGPLDCGNAGTGMRLLAGLLAAQPFDAVMVGDESLSRRPMRRVTGPLAQMGAKIDTEADGTPPLRVHGGQPLHGIDFASPVASAQVKSAVLLAGLYAQGETSVTEPHPTRDYSERMLRAFGVEIEFSPGKARLRGGQRLRATDIAVPADFSSAAFFLVAASIIPGSALTLRQVGLNPRRTGLLAALRLMGADIREENHAEQGGEAVADLVVRHAPLHGAEIPEALVPDMIDEFPALFVAAAAAQGNTIVRGAAELRVKESDRLAAMATGLRSLGVQVDETEDGATIHGGHELGSGTIESHGDHRIAMAFAIAGQLSSGEVRINDIANVATSFPNFDGIARTAGFNLG
modifications: Isolated from soil sample
- resistance to 50 mM glyphosate in E. coli cells: confer resistance
